Laboratory results: the supplement of paper PMC12338614
± gives the uncertainty stated by the source.

B1: library; numbered along this chain (parent)
chain: MEVVDPQQLGMFTEGELMSVGMDTFIHRIDSTEVIYQPRRKRAKLIGKYLMGDLLGEGSYGKVKEVLDSETLCRRAVKILKKKKLRRIPNGEANVKKEIQLLRRLRHKNVIQLVDVLYNEEKQKMYMVMEYCVCGMQEMLDSVPEKRFPVCQAHGYFCQLIDGLEYLHSQGIVHKDIKPGNLLLTTGGTLKISDLGVAEALHPFAADDTCRTSQGSPAFQPPEIANGLDTFSGFKVDIWSAGVTLYNITTGLYPFEGDNIYKLFENIGKGSYAIPGDCGPPLSDLLKGMLEYEPAKRFSIRQIRQHSWFRKKHPPAEAPVPIPPSPDTKDRWRSMTVVPYLEDLHGADEDEDLFDIEDDIIYTQDFTVPGQVPEEEASHNGQRRGLPKAVCMNGTEAAQLSTKSRAEGRAPNPARKACSASSKIRRLSACKQQ

Variants of: B1
Test: STK11 functional score (HeLa growth suppression), rescaled enrichment; synonymous median = 1, nonsense median = 0 (normalised score)
Conditions: with HeLa; variant type: missense
Experimental: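 Deep mutational scan (TileSeq/POPCode codon randomisation) of full-length codon-optimised STK11 cDNA integrated at a Bxb1 landing pad (AAVS1) in HeLa cells. Restoring functional STK11 suppresses HeLa proliferation. Variant frequencies were measured by NGS before and after about two weeks of growth. The error-corrected enrichment log-ratio was rescaled so that synonymous median = 1 and nonsense median = 0, scores above 1 were compressed, and codon-level and three biological replicate scores were combined; error is the bootstrapped standard error. Scale: synonymous median = 1, nonsense median = 0; below 0.5 = damaging.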
With K329Q the STK11 functional score was 1.1 ± 0.39.
With V368H the STK11 functional score was 1.08 ± 0.6.
Work on C151E yielded an STK11 functional score of 0.756 ± 0.29.
K269S gave an STK11 functional score of 1.41 ± 0.19.
Work on E317F yielded an STK11 functional score of 0.542 ± 0.14.
With R405Y the STK11 functional score was 0.397 ± 0.55.
For V20I, the STK11 functional score was 1.22 ± 0.31.
P369Y gave an STK11 functional score of 1.41 ± 0.32.
With D115L the STK11 functional score was 1.19 ± 0.091.
For R304S, the STK11 functional score was 0.843 ± 0.6.
Variant V337S has an STK11 functional score of 0.723 ± 0.17.
For I274Q, the STK11 functional score was 1.62 ± 0.2.
In the case of D348P, the STK11 functional score is reported as 1.59 ± 0.14.
With K124I the STK11 functional score was 1.51 ± 0.15.
Variant N393A has an STK11 functional score of 1.59 ± 0.23.
With G385N the STK11 functional score was 1.59 ± 0.27.
For E396A, the STK11 functional score was 1.29 ± 0.47.
T230Q showed an STK11 functional score of 1.39 ± 0.22.
Variant F157W has an STK11 functional score of 0.714 ± 0.12.
T185H gave an STK11 functional score of 0.484 ± 0.13.
Work on R409A yielded an STK11 functional score of 1.49 ± 0.2.
Work on D359P yielded an STK11 functional score of 1.5 ± 0.3.
Variant P254S has an STK11 functional score of 0.653 ± 0.17.
With P275M the STK11 functional score was 0.445 ± 0.12.
With A429P the STK11 functional score was 0.559 ± 0.56.
N90A showed an STK11 functional score of 1.14 ± 0.72.
K64W was tested, and the STK11 functional score was 1.39 ± 0.16.
In the case of A397T, the STK11 functional score is reported as 1.51 ± 0.23.
Work on I99S yielded an STK11 functional score of 0.869 ± 0.37.
With D208E the STK11 functional score was 1.38 ± 0.51.
L167A was tested, and the STK11 functional score was 0.629 ± 0.09.
I274S showed an STK11 functional score of 0.98 ± 0.21.
L282S gave an STK11 functional score of 0.442 ± 0.08.
For L353T, the STK11 functional score was 1.45 ± 0.16.
With K41I the STK11 functional score was 0.844 ± 0.095.
For P280D, the STK11 functional score was 1.45 ± 0.44.
Work on N94T yielded an STK11 functional score of 1.27 ± 0.18.
Work on N181L yielded an STK11 functional score of -0.122 ± 0.069.
For E256Q, the STK11 functional score was 1.47 ± 0.56.
In the case of P280M, the STK11 functional score is reported as 1.04 ± 0.38.
With R383Q the STK11 functional score was 1.51 ± 0.28.
Work on E256L yielded an STK11 functional score of 1.52 ± 0.31.
Variant D284V has an STK11 functional score of 0.716 ± 0.093.
For Y126S, the STK11 functional score was 0.6 ± 0.1.
L386P was tested, and the STK11 functional score was 0.743 ± 0.56.
G242N showed an STK11 functional score of -0.133 ± 0.22.
R42S gave an STK11 functional score of 1.08 ± 0.58.
I300F was tested, and the STK11 functional score was 1.21 ± 0.35.
H379F showed an STK11 functional score of 1.1 ± 0.23.
In the case of N393H, the STK11 functional score is reported as 1.51 ± 0.48.
P294E was tested, and the STK11 functional score was 1.3 ± 0.3.
N109W was tested, and the STK11 functional score was 0.336 ± 0.076.
Work on L182T yielded an STK11 functional score of 1.12 ± 0.39.
In the case of S401P, the STK11 functional score is reported as 1.07 ± 0.67.
P6C gave an STK11 functional score of 1.1 ± 0.49.
Work on L386V yielded an STK11 functional score of 1.06 ± 0.46.
T367K was tested, and the STK11 functional score was 0.53 ± 0.42.
With E130L the STK11 functional score was 0.308 ± 0.083.
E98V showed an STK11 functional score of 0.117 ± 0.083.
E375A was tested, and the STK11 functional score was 1.13 ± 0.25.
For Q305Y, the STK11 functional score was 1.53 ± 0.17.
Variant Q371P has an STK11 functional score of 1.3 ± 0.51.
A397S showed an STK11 functional score of 1.26 ± 0.17.
D355A gave an STK11 functional score of 0.938 ± 0.15.
With V63G the STK11 functional score was 0.711 ± 0.21.
K269W was tested, and the STK11 functional score was 0.728 ± 0.12.
In the case of C151Y, the STK11 functional score is reported as 1.45 ± 0.41.
With M51W the STK11 functional score was 0.189 ± 0.32.
In the case of F366C, the STK11 functional score is reported as 1.09 ± 0.4.
Work on L50D yielded an STK11 functional score of 1.39 ± 0.39.
Variant T402V has an STK11 functional score of 0.686 ± 0.18.
In the case of G279C, the STK11 functional score is reported as 0.657 ± 0.1.
With D30V the STK11 functional score was 0.22 ± 0.12.
S142Y gave an STK11 functional score of 1.13 ± 0.24.
G370E gave an STK11 functional score of 1.43 ± 0.25.
Variant Q214W has an STK11 functional score of 0.779 ± 0.19.
A406L showed an STK11 functional score of 1.57 ± 0.22.
Work on C391A yielded an STK11 functional score of 1.51 ± 0.22.
Variant P144T has an STK11 functional score of 1.18 ± 0.2.
E121M showed an STK11 functional score of 0.84 ± 0.28.
F354G showed an STK11 functional score of 1.09 ± 0.23.
With L341M the STK11 functional score was 1.63 ± 0.46.
R103W was tested, and the STK11 functional score was 0.732 ± 0.31.
